Test results published in US20230227514A1, “BETA-ARRESTIN COMPOSITIONS AND ASSOCIATED METHODS” (Duke University, priority 2020, published 2023).

Assays:
[1] = molecular target: T1, D2 dopamine receptor (D2R) (Homo sapiens, UniProt P14416); experiment: Co-immunoprecipitation of βarrestin2 constructs with HA-D2R; type: binding; settings: HEK-293 cells stably expressing HA-D2R, co-IP
T1 construct: expressed in transfected cells
Experimental: Cross-linking, Immunoprecipitation and Immunoblotting. […] Twenty-four hours post-transfection, cells were starved in PBS containing 10 mM HEPES (pH 7.4) for 1 h and stimulated with vehicle or agonist (isoproterenol, 1 μM; or AVP 1 μM, or Dopamine 1 μM) at 37° C. for desired times. After stimulations, β2AR stable cells were treated with the crosslinker DSP to a final concentration of […], and plates were rocked for 20 min at room temperature. Reaction was quenched by adding 25 μl of 1M Tris-Cl pH 8.5 per 1 mL volume of buffer in the dish and rocked for additional 5 min at room temperature.
Harvested cells were washed with ice-cold PBS (pH 7.4) and solubilized in an ice-cold lysis buffer (50 mM HEPES (pH 7.5), 2 mM EDTA, 250 mM NaCl, 10% (v/v) glycerol, and 0.5% (v/v) IGEPAL CA-630) that was supplemented with phosphatase and protease inhibitors (1 mM sodium orthovanadate, 1 mM sodium fluoride, 1 mM phenylmethylsulfonyl fluoride, 5 μg/ml leupeptin, 5 μg/ml aprotinin, 1 μg/ml pepstatin A, and 100 μM benzamidine). […] Cell lysate protein concentrations were determined by Bradford protein assay and equivalent μg of proteins were immunoprecipitated using anti-FLAG M2 antibody resin (for FIG. 2) or Anti-HA magnetic beads from Thermo Pierce (for FIG. 5, FIG. 7, and FIG. 8). […] HA-D2R or HA-V2R were detected using an anti-HA IgG (Cell Signaling Technologies). […]

HEK-293 cells = experiment: Confocal microscopy of subcellular distribution of YFP-tagged proteins; type: cell-based, Human; settings: 85 cells (mYFP-βarrestin2-SUMO1) and 80 cells (mYFP-SUMO1) observed
Experimental: Immunostaining and confocal microscopy. […] Twenty-four hours post-transfection, cells were serum-starved for 4 h, and either left untreated or treated with respective agonists for the indicated times in the Figure descriptions. After stimulation, cells were fixed with 5% formaldehyde diluted in phosphate-buffered saline (PBS), permeabilized with 0.1% Triton in PBS containing 2% bovine serum albumin for 20 min and incubated at room temperature with appropriate primary antibody. The next day, cells were washed three times with PBS and incubated with Alexa594 conjugated secondary antibody for 1 h, followed by repeated washes using PBS. Confocal images were acquired using Zeiss LSM510 laser-scanning microscope using multitrack sequential with excitation (488 and 568 nm) and emission (BP 505-550 nm and LP 585 nm) filter sets. […] The nuclear rim localization of YFP-βarrestin2-SUMO1 is readily visualized in cells with low to moderate expression of YFP-protein. […]
To circumvent this issue, a YFP tagged βarrestin2-SUMO1 fusion protein was generated, which would be resistant to the enzymatic activity of SENP1. YFP-βarrestin2-SUMO1 expressed in the cytoplasm akin to YFP-βarrestin2; but was also detected at the nuclear membrane (data not shown). […] While YFP-SUMO1 was concentrated in the nucleus, and nucleoli, very little βarrestin2-SUMO1 was detected in the nucleus or nucleolus. […]

RanGAP1 = molecular target: T2, RanGAP1 (Homo sapiens, UniProt P46060); experiment: Confocal colocalization with endogenous RanGAP1 at the nuclear envelope; type: cell-based; settings: HEK-293 cells with or without β2AR agonist stimulation
T2 construct: endogenous in cells; host or cells: HEK-293T / HEK-293
Experimental: (§1) Immunostaining and confocal microscopy. […] Twenty-four hours post-transfection, cells were serum-starved for 4 h, and either left untreated or treated with respective agonists for the indicated times in the Figure descriptions. After stimulation, cells were fixed with 5% formaldehyde diluted in phosphate-buffered saline (PBS), permeabilized with 0.1% Triton in PBS containing 2% bovine serum albumin for 20 min and incubated at room temperature with appropriate primary antibody. The next day, cells were washed three times with PBS and incubated with Alexa594 conjugated secondary antibody for 1 h, followed by repeated washes using PBS. Confocal images were acquired using Zeiss LSM510 laser-scanning microscope using multitrack sequential with excitation (488 and 568 nm) and emission (BP 505-550 nm and LP 585 nm) filter sets. Images (1024×1024 pixels) were collected using either a 63× or 100× oil immersion lens. Images were processed for Figure presentation using Adobe Photoshop software, and any increase or decrease of brightness/contrast was applied to the entire image. The nuclear rim localization of YFP-βarrestin2-SUMO1 is readily visualized in cells with low to moderate expression of YFP-protein. In cells with high expression, this localization is present, and can be discerned by enlarging sections of the nuclear rim. […]

[2] = molecular target: T3, β1 adrenergic receptor (β1AR) (Homo sapiens, UniProt P08588); experiment: Confocal trafficking and colocalization with β1AR; type: cell-based; settings: HEK-293 cells with stable β1AR expression
T3 construct: expressed in transfected cells
Experimental: Immunostaining and confocal microscopy. […] Twenty-four hours post-transfection, cells were serum-starved for 4 h, and either left untreated or treated with respective agonists for the indicated times in the Figure descriptions. After stimulation, cells were fixed with 5% formaldehyde diluted in phosphate-buffered saline (PBS), permeabilized with 0.1% Triton in PBS containing 2% bovine serum albumin for 20 min and incubated at room temperature with appropriate primary antibody. The next day, cells were washed three times with PBS and incubated with Alexa594 conjugated secondary antibody for 1 h, followed by repeated washes using PBS. Confocal images were acquired using Zeiss LSM510 laser-scanning microscope using multitrack sequential with excitation (488 and 568 nm) and emission (BP 505-550 nm and LP 585 nm) filter sets. Images (1024×1024 pixels) were collected using either a 63× or 100× oil immersion lens. Images were processed for Figure presentation using Adobe Photoshop software, and any increase or decrease of brightness/contrast was applied to the entire image. The nuclear rim localization of YFP-βarrestin2-SUMO1 is readily visualized in cells with low to moderate expression of YFP-protein. In cells with high expression, this localization is present, and can be discerned by enlarging sections of the nuclear rim.

[3] = molecular target: T4, D1 dopamine receptor (D1R) (Homo sapiens, UniProt P21728); experiment: Confocal trafficking and colocalization with D1R; type: cell-based; settings: HEK-293 cells with stable D1R expression; dopamine 15 minutes
T4 construct: expressed in transfected cells
Experimental: as §1

T1 sequence (P14416 whole entry): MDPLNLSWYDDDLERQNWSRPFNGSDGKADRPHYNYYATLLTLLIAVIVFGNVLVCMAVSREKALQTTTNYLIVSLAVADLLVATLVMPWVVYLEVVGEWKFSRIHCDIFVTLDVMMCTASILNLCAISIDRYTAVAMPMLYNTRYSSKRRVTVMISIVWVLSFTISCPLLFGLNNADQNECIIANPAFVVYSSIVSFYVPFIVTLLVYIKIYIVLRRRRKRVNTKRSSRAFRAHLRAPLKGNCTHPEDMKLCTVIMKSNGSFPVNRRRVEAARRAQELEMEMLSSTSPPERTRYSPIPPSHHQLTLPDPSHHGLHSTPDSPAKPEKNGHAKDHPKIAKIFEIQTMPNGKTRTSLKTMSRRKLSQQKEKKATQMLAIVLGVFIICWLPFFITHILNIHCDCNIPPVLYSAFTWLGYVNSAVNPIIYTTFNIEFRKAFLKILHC
T4 sequence (P21728 whole entry): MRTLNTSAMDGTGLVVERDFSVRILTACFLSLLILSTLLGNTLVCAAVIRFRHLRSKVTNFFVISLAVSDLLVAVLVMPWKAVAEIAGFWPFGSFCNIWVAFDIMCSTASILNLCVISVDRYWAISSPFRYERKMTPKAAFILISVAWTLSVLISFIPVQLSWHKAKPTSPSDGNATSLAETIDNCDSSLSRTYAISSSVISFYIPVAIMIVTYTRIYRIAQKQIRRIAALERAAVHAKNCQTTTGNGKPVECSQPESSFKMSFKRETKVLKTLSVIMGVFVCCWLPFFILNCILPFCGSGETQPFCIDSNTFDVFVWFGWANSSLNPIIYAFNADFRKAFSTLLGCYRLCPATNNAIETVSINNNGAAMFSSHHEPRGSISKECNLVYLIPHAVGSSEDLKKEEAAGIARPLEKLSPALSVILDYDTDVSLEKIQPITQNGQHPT
T2 sequence (P46060 2-587 limits assumed): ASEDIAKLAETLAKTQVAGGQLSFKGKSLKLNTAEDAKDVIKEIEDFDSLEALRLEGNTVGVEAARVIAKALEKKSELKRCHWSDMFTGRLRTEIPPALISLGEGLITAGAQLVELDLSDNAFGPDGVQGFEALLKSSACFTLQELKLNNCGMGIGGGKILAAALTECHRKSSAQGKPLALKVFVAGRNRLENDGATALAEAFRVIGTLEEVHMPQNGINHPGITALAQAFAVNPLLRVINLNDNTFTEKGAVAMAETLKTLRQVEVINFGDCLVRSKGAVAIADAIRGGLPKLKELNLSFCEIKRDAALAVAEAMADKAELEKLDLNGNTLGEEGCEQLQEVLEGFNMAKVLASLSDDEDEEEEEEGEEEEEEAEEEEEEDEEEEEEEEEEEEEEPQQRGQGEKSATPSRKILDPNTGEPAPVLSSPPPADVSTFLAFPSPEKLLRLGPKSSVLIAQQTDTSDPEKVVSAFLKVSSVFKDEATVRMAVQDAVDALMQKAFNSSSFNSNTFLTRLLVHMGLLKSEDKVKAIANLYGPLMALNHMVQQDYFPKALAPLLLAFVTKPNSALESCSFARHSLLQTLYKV
T2 sequence (P63165 2-97 partner limits assumed): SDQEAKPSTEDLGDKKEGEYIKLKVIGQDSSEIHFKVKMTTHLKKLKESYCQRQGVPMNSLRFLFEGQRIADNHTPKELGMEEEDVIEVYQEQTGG
T3 sequence (P08588 whole entry, species assumed): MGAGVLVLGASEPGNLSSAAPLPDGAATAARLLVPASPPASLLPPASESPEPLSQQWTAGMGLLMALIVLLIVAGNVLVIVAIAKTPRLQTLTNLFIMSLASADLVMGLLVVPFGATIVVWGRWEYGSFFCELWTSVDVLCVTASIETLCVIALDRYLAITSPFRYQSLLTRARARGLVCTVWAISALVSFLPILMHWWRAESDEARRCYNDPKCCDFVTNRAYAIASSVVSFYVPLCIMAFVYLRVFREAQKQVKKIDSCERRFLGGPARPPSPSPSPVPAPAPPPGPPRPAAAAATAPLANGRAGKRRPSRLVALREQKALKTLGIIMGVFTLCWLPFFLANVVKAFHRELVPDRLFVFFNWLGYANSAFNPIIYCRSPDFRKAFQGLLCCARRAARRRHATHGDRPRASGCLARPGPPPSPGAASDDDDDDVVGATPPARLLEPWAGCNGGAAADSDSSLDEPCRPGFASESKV

βarrestin2-SUMO1: rat βarrestin2 polypeptide fused to human SUMO1 (SEQ ID NO:1); used YFP- or Flag-tagged
binding to activated D2R relative to wild-type βarrestin2 ([1]; 20 minutes of 1 μM dopamine, Western blot): 3-4 fold
D2R-binding affinity versus βarrestin2 ([1]; five minutes of 1 μM dopamine): no significant difference
localization of YFP fluorescence at the nuclear membrane (HEK-293 cells): all cells
colocalization with endogenous RanGAP1 at the nuclear envelope (RanGAP1): dramatic increase in colocalization
association with β1AR after isoproterenol activation (confocal) [2]: strongly and stably
association with D1R after dopamine activation (confocal) [3]: strongly and stably
